Assay in all cases: AUC
Test [1] concerns the target TDP-43 CTD S→E S305C, disulfide cross-linked dimer (human).
Test [2] addresses TDP-43 CTD S→E S273C, disulfide cross-linked dimer (human).
Test [3] deals with TDP-43 CTD S→E S317C, disulfide cross-linked dimer (human).

Several values for one entry are separate records, joined by “and”; a condition that tells them apart may be missing. Equal values may be shown once. Bounds are passed on as bounds.

By stoichiometry N is commonly meant a count of units in the complex or per binding partner. Turning to “TDP-43 CTD S→E S305C, disulfide cross-linked dimer (domain or fragment)”, in test [1], the Kd dimer-tetramer turned out to be 58 µM; the Kd tetramer-octamer was found to be 4.7 µM; the stoichiometry N is 4 and 8.
With “TDP-43 CTD S→E S273C, disulfide cross-linked dimer (domain or fragment)”, in test [2], the fraction of tetramer is under 1%.
As usually defined, the Kd is the constant that tells how readily two partners part at equilibrium. A low value points to tighter binding. For “TDP-43 CTD S→E S317C, disulfide cross-linked dimer (domain or fragment)”, in test [3], the Kd is 46 µM and the stoichiometry N turned out to be 4.

Values taken from paper PMC11245101.
